The text below walks through data of patent US12247072.

The target of test [1] is keyhole limpet hemocyanin. Nature of the test: polyreactivity ELISA. (In general: An ELISA detects its analyte on a solid surface through an enzyme-linked reagent.)
Test [2] addresses keyhole limpet hemocyanin. Nature of the test: polyreactivity ELISA. The source holds these as a separate data set.

Like-named read-outs stand apart in the source and are kept apart here.

As to Bococizumab (antibody), the Binding to KLH (A450 normalised to buffer control) in test [1] was found to be 47.1; in test [2], 24.4.
